Experimental findings from patent publication US20200199241A1 (Chugai, published 2020) are described below.

In assay [1] the target is T1, FcγRIIb (human, UniProt P31994 43-217, limits assumed).
T1 construct: SPR analyte; also called FcγIIB; CD32
T1 sequence: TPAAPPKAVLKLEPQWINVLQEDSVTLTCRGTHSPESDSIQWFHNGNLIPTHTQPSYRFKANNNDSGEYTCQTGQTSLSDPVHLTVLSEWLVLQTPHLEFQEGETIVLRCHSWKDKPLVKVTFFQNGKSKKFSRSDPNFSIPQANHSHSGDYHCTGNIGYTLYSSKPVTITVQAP
Briefly: ratio of SPR KDs; reference IL6R-B3/IL6R-L.
From the text: Furthermore, KD(IIaR)/KD(IIb) and KD(IIaH)/KD(IIb) in the table respectively represent the value obtained by dividing the KD value of each variant for FcγRIIaR by the KD value of each variant for FcγRIIb, and the value obtained by dividing the KD value of each variant for FcγRIIaH by the KD value of each variant for FcγRIIb. KD(IIb) of the parent polypeptide/KD(IIb) of the altered polypeptide refers to the value obtained by dividing the KD value of the parent polypeptide for FcγRIIb by the KD value of each variant for FcγRIIb.

For assay [2], the target named is T2, FcγRIIa type R (human, UniProt P12318 36-217).
T2 construct: SPR analyte; also called FcγRIIaR; FcγRIIa(R)
T2 chain: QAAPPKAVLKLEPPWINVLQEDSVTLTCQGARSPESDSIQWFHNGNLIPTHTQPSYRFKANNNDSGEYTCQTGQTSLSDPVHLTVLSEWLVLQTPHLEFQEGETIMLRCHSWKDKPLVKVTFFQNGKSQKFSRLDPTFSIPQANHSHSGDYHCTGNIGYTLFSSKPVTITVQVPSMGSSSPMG
Kind of assay: SPR (Biacore), antibody captured, FcγR analyte. For orientation: SPR reads the build-up and loss of mass on a sensor chip optically.

Assay [3] concerns the target T3, FcγRIa (human, UniProt P12314 16-292, limits assumed).
T3 construct: SPR analyte; also called CD64
Kind of assay: SPR (Biacore), antibody captured, FcγR analyte.

The target of assay [4] is T4, FcγRIIIa type V (human, UniProt P08637 17-208, limits assumed).
T4 construct: SPR analyte; allotype V158 was used here; also called FcγRIIIaV; FcγRIIIa(V)
Kind of assay: SPR (Biacore), antibody captured, FcγR analyte.

The target of assay [5] is T5, FcγRIIa type H (human, UniProt P12318 36-217).
T5 construct: SPR analyte; also called FcγRIIaH
T5 sequence: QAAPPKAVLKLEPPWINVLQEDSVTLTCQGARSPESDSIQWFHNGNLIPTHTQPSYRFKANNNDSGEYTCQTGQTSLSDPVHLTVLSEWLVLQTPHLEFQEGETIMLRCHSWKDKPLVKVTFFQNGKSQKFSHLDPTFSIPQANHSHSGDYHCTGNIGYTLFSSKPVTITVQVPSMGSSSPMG
Briefly: SPR (Biacore), antibody captured, FcγR analyte.

Assay [6] concerns the target T1, FcγRIIb. Kind of assay: SPR (Biacore), antibody captured, FcγR analyte.

T3 sequence (P12314 16-292 limits assumed): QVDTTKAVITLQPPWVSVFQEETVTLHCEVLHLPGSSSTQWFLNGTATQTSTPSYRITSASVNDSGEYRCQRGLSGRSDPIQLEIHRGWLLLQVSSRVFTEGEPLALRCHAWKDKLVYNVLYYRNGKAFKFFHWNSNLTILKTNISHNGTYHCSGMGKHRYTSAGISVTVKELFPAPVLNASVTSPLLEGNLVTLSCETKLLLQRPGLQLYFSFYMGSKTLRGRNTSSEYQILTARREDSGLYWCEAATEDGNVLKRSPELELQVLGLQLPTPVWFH
T4 sequence (P08637 other isoform, or with tags, fused parts or gaps limits assumed): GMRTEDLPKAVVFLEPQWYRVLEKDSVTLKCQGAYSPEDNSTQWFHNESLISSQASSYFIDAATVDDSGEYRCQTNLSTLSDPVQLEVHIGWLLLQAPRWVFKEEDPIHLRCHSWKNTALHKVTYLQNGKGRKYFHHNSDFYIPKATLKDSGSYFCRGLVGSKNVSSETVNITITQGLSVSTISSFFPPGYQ

B1: IL6R-BP084/IL6R-L (antibody, human IgG1)
heavy: QVQLQESGPGLVKPSETLSLTCAVSGHSISHDHAWSWVRQPPGEGLEWIGFISYSGITNYNPSLQGRVTISRDNSKNTLYLQMNSLRAEDTAVYYCARSLARTTAMDYWGEGTLVTVSSASTKGPSVFPLAPSSKSTSGGTAALGCLVKDYFPEPVTVSWNSGALTSGVHTFPAVLQSSGLYSLSSVVTVPSSSLGTQTYICNVNHKPSNTKVDKKVEPKSCDKTHTCPPCPAPELLGGDSVFLFPPKPKDTLMISRTPEVTCVVVDVSHEDPEVKFNWYVDGVEVHNAKTKPREEQYNSTYRVVSVLTVLHQDWLNGKEYKCKMSNKALPKPIEKTISKAKGQPREPQVYTLPPSRDELTKNQVSLTCLVKGFYPSDIAVEWESNGQPENNYKTTPPVLDSDGSFFLYSKLTVDKSRWQQGNVFSCSVMHEALHNHYTQESLSLSP
light: DIQMTQSPSSLSASVGDRVTITCRASQDISSYLNWYQQKPGKAPKLLIYYTSRLHSGVPSRFSGSGSGTDFTFTISSLQPEDIATYYCQQGNTLPYTFGQGTKVEIK
As a reminder, the Kd is the equilibrium constant for the complex coming apart. A lower Kd goes with higher affinity. Consider B1, for which the “KD(IIb) of the parent polypeptide/KD(IIb) of altered polypeptide” value (“KD(IIb)” for short) in assay [1] turned out to be 6.1. Besides, the Kd in assay [2] amounted to 7.2 µM; in assay [3], 0.007 µM; in assay [4] it was 67 µM; in assay [5] it was 24 µM; in assay [6], 0.5 µM.

B2: IL6R-BP132/IL6R-L (antibody, human IgG1)
heavy: QVQLQESGPGLVKPSETLSLTCAVSGHSISHDHAWSWVRQPPGEGLEWIGFISYSGITNYNPSLQGRVTISRDNSKNTLYLQMNSLRAEDTAVYYCARSLARTTAMDYWGEGTLVTVSSASTKGPSVFPLAPSSKSTSGGTAALGCLVKDYFPEPVTVSWNSGALTSGVHTFPAVLQSSGLYSLSSVVTVPSSSLGTQTYICNVNHKPSNTKVDKKVEPKSCDKTHTCPPCPAPDLLGGDSVFLFPPKPKDTLMISRTPEVTCVVVDVSHEDPEVKFNWYVDGVEVHNAKTKPREEQYNSTYRVVSVLTVLHQDWLNGKEYKCKVSNAALPKPIEKTISKAKGQPREPQVYTLPPSRDELTKNQVSLTCLVKGFYPSDIAVEWESNGQPENNYKTTPPVLDSDGSFFLYSKLTVDKSRWQQGNVFSCSVMHEALHNHYTQESLSLSP
light: DIQMTQSPSSLSASVGDRVTITCRASQDISSYLNWYQQKPGKAPKLLIYYTSRLHSGVPSRFSGSGSGTDFTFTISSLQPEDIATYYCQQGNTLPYTFGQGTKVEIK
For B2, in assay [1], the “KD(IIb)” value was 8.4. The Kd in assay [2] worked out at 8 µM; in assay [3], 0.015 µM; in assay [4] it was 58 µM; in assay [5], 30 µM; in assay [6] it was 0.37 µM.

B3: IL6R-BP085/IL6R-L (antibody, human IgG1)
heavy: QVQLQESGPGLVKPSETLSLTCAVSGHSISHDHAWSWVRQPPGEGLEWIGFISYSGITNYNPSLQGRVTISRDNSKNTLYLQMNSLRAEDTAVYYCARSLARTTAMDYWGEGTLVTVSSASTKGPSVFPLAPSSKSTSGGTAALGCLVKDYFPEPVTVSWNSGALTSGVHTFPAVLQSSGLYSLSSVVTVPSSSLGTQTYICNVNHKPSNTKVDKKVEPKSCDKTHTCPPCPAPELLGDDSVFLFPPKPKDTLMISRTPEVTCVVVDVSHEDPEVKFNWYVDGVEVHNAKTKPREEQYNSTYRVVSVLTVLHQDWLNGKEYKCKVSNKALPKPIEKTISKAKGQPREPQVYTLPPSRDELTKNQVSLTCLVKGFYPSDIAVEWESNGQPENNYKTTPPVLDSDGSFFLYSKLTVDKSRWQQGNVFSCSVMHEALHNHYTQESLSLSP
light: DIQMTQSPSSLSASVGDRVTITCRASQDISSYLNWYQQKPGKAPKLLIYYTSRLHSGVPSRFSGSGSGTDFTFTISSLQPEDIATYYCQQGNTLPYTFGQGTKVEIK
Turning to B3, the “KD(IIb)” value in assay [1] amounted to 9.6. Further, the Kd in assay [2] was determined as 4.2 µM; in assay [3] it was 0.29 µM; in assay [4], 68 µM; in assay [5] it was 24 µM; in assay [6] it was 0.32 µM.

B4: IL6R-BP088/IL6R-L (antibody, human IgG1)
heavy: QVQLQESGPGLVKPSETLSLTCAVSGHSISHDHAWSWVRQPPGEGLEWIGFISYSGITNYNPSLQGRVTISRDNSKNTLYLQMNSLRAEDTAVYYCARSLARTTAMDYWGEGTLVTVSSASTKGPSVFPLAPSSKSTSGGTAALGCLVKDYFPEPVTVSWNSGALTSGVHTFPAVLQSSGLYSLSSVVTVPSSSLGTQTYICNVNHKPSNTKVDKKVEPKSCDKTHTCPPCPAPELLGDDSVFLFPPKPKDTLMISRTPEVTCVVVDVSHEDPEVKFNWYVDGVEVHNAKTKPREEQYNSTYRVVSVLTVLHQDWLNGKEYKCKVSNAALPKPIEKTISKAKGQPREPQVYTLPPSRDELTKNQVSLTCLVKGFYPSDIAVEWESNGQPENNYKTTPPVLDSDGSFFLYSKLTVDKSRWQQGNVFSCSVMHEALHNHYTQESLSLSP
light: DIQMTQSPSSLSASVGDRVTITCRASQDISSYLNWYQQKPGKAPKLLIYYTSRLHSGVPSRFSGSGSGTDFTFTISSLQPEDIATYYCQQGNTLPYTFGQGTKVEIK
Turning to B4, the “KD(IIb)” value in assay [1] worked out at 14.3. Also, the Kd in assay [2] was determined as 2.9 µM; in assay [3] it was 0.39 µM; in assay [4], 57 µM; in assay [5], 23 µM; in assay [6], 0.22 µM.

B5: IL6R-BP089/IL6R-L (antibody, human IgG1)
heavy: QVQLQESGPGLVKPSETLSLTCAVSGHSISHDHAWSWVRQPPGEGLEWIGFISYSGITNYNPSLQGRVTISRDNSKNTLYLQMNSLRAEDTAVYYCARSLARTTAMDYWGEGTLVTVSSASTKGPSVFPLAPSSKSTSGGTAALGCLVKDYFPEPVTVSWNSGALTSGVHTFPAVLQSSGLYSLSSVVTVPSSSLGTQTYICNVNHKPSNTKVDKKVEPKSCDKTHTCPPCPAPEYLGGDSVFLFPPKPKDTLMISRTPEVTCVVVDVSHEDPEVKFNWYVDGVEVHNAKTKPREEQYNSTYRVVSVLTVLHQDWLNGKEYKCKVSNAALPKPIEKTISKAKGQPREPQVYTLPPSRDELTKNQVSLTCLVKGFYPSDIAVEWESNGQPENNYKTTPPVLDSDGSFFLYSKLTVDKSRWQQGNVFSCSVMHEALHNHYTQESLSLSP
light: DIQMTQSPSSLSASVGDRVTITCRASQDISSYLNWYQQKPGKAPKLLIYYTSRLHSGVPSRFSGSGSGTDFTFTISSLQPEDIATYYCQQGNTLPYTFGQGTKVEIK
B5: in assay [1], the “KD(IIb)” value was 8. Also, the Kd came out at 6.4 µM in assay [2]; 0.063 µM in assay [3]; 51 µM in assay [4]; 20 µM in assay [5]; 0.39 µM in assay [6].

B6: IL6R-BP129/IL6R-L (antibody, human IgG1)
heavy: QVQLQESGPGLVKPSETLSLTCAVSGHSISHDHAWSWVRQPPGEGLEWIGFISYSGITNYNPSLQGRVTISRDNSKNTLYLQMNSLRAEDTAVYYCARSLARTTAMDYWGEGTLVTVSSASTKGPSVFPLAPSSKSTSGGTAALGCLVKDYFPEPVTVSWNSGALTSGVHTFPAVLQSSGLYSLSSVVTVPSSSLGTQTYICNVNHKPSNTKVDKKVEPKSCDKTHTCPPCPAPDLLGGDSVFLFPPKPKDTLMISRTPEVTCVVVDVSHEDPEVKFNWYVDGVEVHNAKTKPREEQDNSTYRVVSVLTVLHQDWLNGKEYKCKVSNKALPKPIEKTISKAKGQPREPQVYTLPPSRDELTKNQVSLTCLVKGFYPSDIAVEWESNGQPENNYKTTPPVLDSDGSFFLYSKLTVDKSRWQQGNVFSCSVMHEALHNHYTQESLSLSP
light: DIQMTQSPSSLSASVGDRVTITCRASQDISSYLNWYQQKPGKAPKLLIYYTSRLHSGVPSRFSGSGSGTDFTFTISSLQPEDIATYYCQQGNTLPYTFGQGTKVEIK
For the molecule B6, the “KD(IIb)” value in assay [1] was found to be 6. The Kd in assay [2] was found to be 15 µM; in assay [3], 0.025 µM; in assay [4], 75 µM; in assay [5], 40 µM; in assay [6] it was 0.52 µM.

B7: IL6R-BP144/IL6R-L (antibody, human IgG1)
heavy: QVQLQESGPGLVKPSETLSLTCAVSGHSISHDHAWSWVRQPPGEGLEWIGFISYSGITNYNPSLQGRVTISRDNSKNTLYLQMNSLRAEDTAVYYCARSLARTTAMDYWGEGTLVTVSSASTKGPSVFPLAPSSKSTSGGTAALGCLVKDYFPEPVTVSWNSGALTSGVHTFPAVLQSSGLYSLSSVVTVPSSSLGTQTYICNVNHKPSNTKVDKKVEPKSCDKTHTCPPCPAPELLGDDSVFLFPPKPKDTLMISRTPEVTCVVVDVSHEDPEVKFNWYVDGVEVHNAKTKPREEQYNSTYRVVSVLTVLHQDWLNGKEYKCKVSNAALPAPIEKTISKAKGQPREPQVYTLPPSRDELTKNQVSLTCLVKGFYPSDIAVEWESNGQPENNYKTTPPVLDSDGSFFLYSKLTVDKSRWQQGNVFSCSVMHEALHNHYTQESLSLSP
light: DIQMTQSPSSLSASVGDRVTITCRASQDISSYLNWYQQKPGKAPKLLIYYTSRLHSGVPSRFSGSGSGTDFTFTISSLQPEDIATYYCQQGNTLPYTFGQGTKVEIK
In the case of B7, the “KD(IIb)” value in assay [1] was 3.9. Besides, the Kd in assay [2] was 6.9 µM; in assay [3] it was 0.037 µM; in assay [4], 55 µM; in assay [5], 36 µM; in assay [6] it was 0.79 µM.
